The target in data set [1] is T1, Op MAL1 (maltase protein MAL1 of Ogataea polymorpha) (Ogataea angusta, UniProt Q9P8G8).
T1 sequence (Q9P8G8 1-564): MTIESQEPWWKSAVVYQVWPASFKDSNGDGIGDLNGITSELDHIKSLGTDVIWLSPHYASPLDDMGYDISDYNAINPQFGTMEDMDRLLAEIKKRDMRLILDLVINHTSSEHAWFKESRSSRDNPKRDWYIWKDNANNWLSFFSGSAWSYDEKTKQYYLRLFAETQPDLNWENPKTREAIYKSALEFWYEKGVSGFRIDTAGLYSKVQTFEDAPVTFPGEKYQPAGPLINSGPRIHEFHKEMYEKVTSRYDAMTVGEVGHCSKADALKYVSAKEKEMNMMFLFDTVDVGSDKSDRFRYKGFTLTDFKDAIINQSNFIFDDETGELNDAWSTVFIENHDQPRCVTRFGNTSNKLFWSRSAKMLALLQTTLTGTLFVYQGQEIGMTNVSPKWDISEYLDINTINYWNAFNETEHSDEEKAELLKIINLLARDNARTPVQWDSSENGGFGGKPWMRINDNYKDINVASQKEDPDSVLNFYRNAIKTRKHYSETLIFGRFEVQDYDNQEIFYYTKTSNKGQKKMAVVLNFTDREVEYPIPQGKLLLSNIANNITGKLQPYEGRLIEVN
Put plainly: inhibition of α-pNPG hydrolysis (p-nitrophenol release). In kind it is biochemical. To be noted: competitive; 0.1-3.0 mM α-pNPG; 100 mM K-phosphate pH 6.5, 0.1 mM EDTA, 37 °C; 5 min pre-incubation; read-out: K i (mM) of Op maltase.

Substrate in data set [2]: O=[N+]([O-])c1ccc(O[C@H]2O[C@H](CO)[C@@H](O)[C@H](O)[C@H]2O)cc1
Put plainly: purified protein. To be noted: 100 mM K-phosphate pH 6.5, 0.1 mM EDTA, 37 °C.

Substrate in data set [3]: CO[C@H]1O[C@H](CO)[C@@H](O)[C@H](O)[C@H]1O
Nature of the data set: initial rate of glucose release. In kind it is biochemical, Ogataea angusta. The conditions noted are these: 100 mM K-phosphate pH 6.5, 0.1 mM EDTA, 37 °C. From the text:
(§1) initial rate of glucose release on Op MAL1 (maltase protein MAL1 of Ogataea polymorpha)

Substrate in data set [4]: OC[C@H]1O[C@@](CO)(O[C@H]2O[C@H](CO)[C@@H](O)[C@H](O)[C@H]2O)[C@@H](O)[C@@H]1O
Put plainly: initial rate of glucose release. The conditions noted are these: 100 mM K-phosphate pH 6.5, 0.1 mM EDTA, 37 °C. It counts as biochemical, Ogataea angusta.
From the text: as §1

Take `OC[C@H]1OC(O)[C@H](O)[C@@H](O)[C@@H]1O` (stereo partly drawn) [D-Glucose]: the Ki in data set [1] was determined as 5.1 ± 0.7 mM.

For `C[C@H]1O[C@H](O[C@H]2[C@H](O)[C@@H](O)[C@@H](O[C@H]3[C@H](O)[C@@H](O)C(O)O[C@@H]3CO)O[C@@H]2CO)[C@H](O)[C@@H](O)[C@@H]1N[C@H]1C=C(CO)[C@@H](O)[C@H](O)[C@H]1O` (some centres unmarked) [Acarbose], in data set [1], the Ki turned out to be 0.0065 ± 0.0008 mM.

B1: Op MAL1 (maltase protein MAL1 of Ogataea polymorpha) (Ogataea angusta) (protein)
chain: T1 sequence (Q9P8G8 1-564)
Take B1: the Km in data set [2] was 0.52 ± 0.05 mM; in data set [3], 35.5 ± 3.3 mM; in data set [4], 25.1 ± 2.4 mM. In addition, the kcat came out at 141 s⁻¹ in data set [2], 30.1 ± 1.1 s⁻¹ in data set [3] and 183 ± 6.95 s⁻¹ in data set [4]. The results for the kcat/Km in data set [2], in data set [3] and in data set [4] were 272000 M⁻¹ s⁻¹, 848 M⁻¹ s⁻¹ and 7290 M⁻¹ s⁻¹, respectively.

Source of the values: PMC5074314, “Maltase protein of Ogataea (Hansenula) polymorpha is a counterpart to the resurrected ancestor protein ancMALS of yeast maltases and isomaltases” (Yeast (Chichester, England), 2016).
